Measurements published in PMC9867944 (2023).

Molecular target: human PD-1 protein (Acro biosystems) (human, UniProt Q15116 25-170)
Test: SPR

Sequence of human PD-1 protein (Acro biosystems) (Q15116 25-170): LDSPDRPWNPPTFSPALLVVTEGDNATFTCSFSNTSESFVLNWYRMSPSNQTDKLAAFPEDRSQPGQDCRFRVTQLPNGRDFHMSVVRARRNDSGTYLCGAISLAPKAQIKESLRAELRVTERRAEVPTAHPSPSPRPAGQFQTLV

koff: 0.00178 s⁻¹
B1: anti-PD-1 Nb C12-Fc (Fc fusion)
chain: QVQLQELGETRCRHGGSLRLSCKVSGYTQRSYCLGWLRQAPGNEREAVAVLQHSGNFRHYADSVQGRFVISQDYTDNTVYLAMNNLKSEDAAMYYCAAVGLRVSQFNYWGQGTQVTVSS
